According to publication PMC8379176 (Nature Communications, 2021):

Test system: ghrelin receptor (WT or mutants)
Test: Cell-surface expression assay (FACS)
Format: cell-based, human
Procedure: Cell-surface expression for each mutant was monitored by a fluorescence-activated cell sorting (FACS) assay. In brief, the expressed cells were incubated with mouse anti-HA-FITC antibody (Sigma) at a dilution of 1:200 for 20 min at 4 °C, and then a 9-fold excess of PBS was added to cells. […] The FACS data were analyzed by BD Accuri C6 software 1.0.264.21. The gating strategy and calculation method of expression are shown in Supplementary Fig. 11.
Supplementary Figure 11 | Gating strategy of cell surface expression assay. Circle a gate P1 in the scatter map (black circle). The cells shown in the histogram map are all the cells in the gate P1 in the scatter map. Fluorescence signal intensity (FITC) is presented by […]. With the Blank sample as the reference value of background fluorescence signal (a), the fluorescence signal histogram map is divided into two regions. The left region represents the negative cell community (FITC-), while the right region represents the positive cell community (FITC+). The expression level of cell surface wild-type (WT) ghrelin receptor (b) can be calculated as follows:
(M(FITC+)-M(FITC-))×(FITC+% Parent). M, mean fluorescence intensity. The expression level of the ghrelin receptor mutant is calculated similarly to WT receptor and then is normalized with the WT to calculate the relative expression value. […]

B1: WT (protein, UniProt Q92847 1-366, looked up)
Growth hormone secretagogue …: MWNATPSEEPGFNLTLADLDWDASPGNDSLGDELLQLFPAPLLAGVTATCVALFVVGIAGNLLTMLVVSRFRELRTTTNLYLSSMAFSDLLIFLCMPLDLVRLWQYRPWNFGDLLCKLFQFVSESCTYATVLTITALSVERYFAICFPLRAKVVVTKGRVKLVIFVIWAVAFCSAGPIFVLVGVEHENGTDPWDTNECRPTEFAVRSGLLTVMVWVSSIFFFLPVFCLTVLYSLIGRKLWRRRRGDAVVGASLRDQNHKQTVKMLAVVVFAFILCWLPFHVGRYLFSKSFEPGSLEIAQISQYCNLVSFVLFYLSAAINPILYNIMSKKYRVAVFRLLGFEPFSQRKLSTLKDESSRAWTESSINT
For B1, which Cell-surface expression (replicate 1) is on record?
The Cell-surface expression was 98.69%.

What about the Cell-surface expression (replicate 2) of the same molecule?
The Cell-surface expression was 96.95%.

What about the Cell-surface expression (replicate 3) of the same molecule?
The Cell-surface expression was 107.34%.

And the Cell-surface expression (replicate 4)?
Its Cell-surface expression is 98.90%.

And the Cell-surface expression (replicate 5)?
Its Cell-surface expression is 98.13%.

B2: L1032.64A (protein)
chain: MWNATPSEEPGFNLTLADLDWDASPGNDSLGDELLQLFPAPLLAGVTATCVALFVVGIAGNLLTMLVVSRFRELRTTTNLYLSSMAFSDLLIFLCMPLDLVRAWQYRPWNFGDLLCKLFQFVSESCTYATVLTITALSVERYFAICFPLRAKVVVTKGRVKLVIFVIWAVAFCSAGPIFVLVGVEHENGTDPWDTNECRPTEFAVRSGLLTVMVWVSSIFFFLPVFCLTVLYSLIGRKLWRRRRGDAVVGASLRDQNHKQTVKMLAVVVFAFILCWLPFHVGRYLFSKSFEPGSLEIAQISQYCNLVSFVLFYLSAAINPILYNIMSKKYRVAVFRLLGFEPFSQRKLSTLKDESSRAWTESSINT
modifications: SNAP tag labelled with SNAP-Lumi4-Tb; left off: SNAP, N-terminal, kept
With B2 as the molecule, how does the Cell-surface expression (replicate 1) read?
Its Cell-surface expression is 102.32%.

What about the Cell-surface expression (replicate 2) of the same molecule?
Its Cell-surface expression is 103.70%.

And the Cell-surface expression (replicate 3)?
The Cell-surface expression was 96.41%.

What about the Cell-surface expression (replicate 4) of the same molecule?
Its Cell-surface expression is 91.52%.

And the Cell-surface expression (replicate 5)?
Its Cell-surface expression is 101.60%.

B3: F38N-termA (protein)
chain: MWNATPSEEPGFNLTLADLDWDASPGNDSLGDELLQLAPAPLLAGVTATCVALFVVGIAGNLLTMLVVSRFRELRTTTNLYLSSMAFSDLLIFLCMPLDLVRLWQYRPWNFGDLLCKLFQFVSESCTYATVLTITALSVERYFAICFPLRAKVVVTKGRVKLVIFVIWAVAFCSAGPIFVLVGVEHENGTDPWDTNECRPTEFAVRSGLLTVMVWVSSIFFFLPVFCLTVLYSLIGRKLWRRRRGDAVVGASLRDQNHKQTVKMLAVVVFAFILCWLPFHVGRYLFSKSFEPGSLEIAQISQYCNLVSFVLFYLSAAINPILYNIMSKKYRVAVFRLLGFEPFSQRKLSTLKDESSRAWTESSINT
modifications: SNAP tag labelled with SNAP-Lumi4-Tb; left off: SNAP, N-terminal, kept
With B3 as the molecule, how does the Cell-surface expression (replicate 1) read?
Its Cell-surface expression is 92.98%.

What about the Cell-surface expression (replicate 2) of the same molecule?
Its Cell-surface expression is 95.22%.

What about the Cell-surface expression (replicate 3) of the same molecule?
The Cell-surface expression was 93.15%.

And the Cell-surface expression (replicate 4)?
The Cell-surface expression was 94.06%.

And the Cell-surface expression (replicate 5)?
Its Cell-surface expression is 92.77%.

B4: I1784.60A (protein)
chain: MWNATPSEEPGFNLTLADLDWDASPGNDSLGDELLQLFPAPLLAGVTATCVALFVVGIAGNLLTMLVVSRFRELRTTTNLYLSSMAFSDLLIFLCMPLDLVRLWQYRPWNFGDLLCKLFQFVSESCTYATVLTITALSVERYFAICFPLRAKVVVTKGRVKLVIFVIWAVAFCSAGPAFVLVGVEHENGTDPWDTNECRPTEFAVRSGLLTVMVWVSSIFFFLPVFCLTVLYSLIGRKLWRRRRGDAVVGASLRDQNHKQTVKMLAVVVFAFILCWLPFHVGRYLFSKSFEPGSLEIAQISQYCNLVSFVLFYLSAAINPILYNIMSKKYRVAVFRLLGFEPFSQRKLSTLKDESSRAWTESSINT
modifications: SNAP tag labelled with SNAP-Lumi4-Tb; left off: SNAP, N-terminal, kept
How did the Cell-surface expression (replicate 1) turn out when B4 was run?
The Cell-surface expression was 94.94%.

What about the Cell-surface expression (replicate 2) of the same molecule?
Its Cell-surface expression is 100.59%.

What about the Cell-surface expression (replicate 3) of the same molecule?
Its Cell-surface expression is 91.58%.

And the Cell-surface expression (replicate 4)?
Its Cell-surface expression is 96.01%.

What about the Cell-surface expression (replicate 5) of the same molecule?
Its Cell-surface expression is 89.87%.

B5: E197ECL2A (protein)
chain: MWNATPSEEPGFNLTLADLDWDASPGNDSLGDELLQLFPAPLLAGVTATCVALFVVGIAGNLLTMLVVSRFRELRTTTNLYLSSMAFSDLLIFLCMPLDLVRLWQYRPWNFGDLLCKLFQFVSESCTYATVLTITALSVERYFAICFPLRAKVVVTKGRVKLVIFVIWAVAFCSAGPIFVLVGVEHENGTDPWDTNACRPTEFAVRSGLLTVMVWVSSIFFFLPVFCLTVLYSLIGRKLWRRRRGDAVVGASLRDQNHKQTVKMLAVVVFAFILCWLPFHVGRYLFSKSFEPGSLEIAQISQYCNLVSFVLFYLSAAINPILYNIMSKKYRVAVFRLLGFEPFSQRKLSTLKDESSRAWTESSINT
modifications: SNAP tag labelled with SNAP-Lumi4-Tb; left off: SNAP, N-terminal, kept
B5 was tested. Which Cell-surface expression (replicate 1) did it give?
The Cell-surface expression was 101.89%.

And the Cell-surface expression (replicate 2)?
The Cell-surface expression was 100.72%.

And the Cell-surface expression (replicate 3)?
The Cell-surface expression was 102.63%.

And the Cell-surface expression (replicate 4)?
The Cell-surface expression was 110.56%.

What about the Cell-surface expression (replicate 5) of the same molecule?
The Cell-surface expression was 103.22%.

B6: R1022.63A (protein)
chain: MWNATPSEEPGFNLTLADLDWDASPGNDSLGDELLQLFPAPLLAGVTATCVALFVVGIAGNLLTMLVVSRFRELRTTTNLYLSSMAFSDLLIFLCMPLDLVALWQYRPWNFGDLLCKLFQFVSESCTYATVLTITALSVERYFAICFPLRAKVVVTKGRVKLVIFVIWAVAFCSAGPIFVLVGVEHENGTDPWDTNECRPTEFAVRSGLLTVMVWVSSIFFFLPVFCLTVLYSLIGRKLWRRRRGDAVVGASLRDQNHKQTVKMLAVVVFAFILCWLPFHVGRYLFSKSFEPGSLEIAQISQYCNLVSFVLFYLSAAINPILYNIMSKKYRVAVFRLLGFEPFSQRKLSTLKDESSRAWTESSINT
modifications: SNAP tag labelled with SNAP-Lumi4-Tb; left off: SNAP, N-terminal, kept
What does the source list for B6?
Cell-surface expression (replicate 1): 101.47%; Cell-surface expression (replicate 2): 87.96%; Cell-surface expression (replicate 3): 94.26%; Cell-surface expression (replicate 4): 99.21%; Cell-surface expression (replicate 5): 100.61%

B7: L1814.63A (protein)
chain: MWNATPSEEPGFNLTLADLDWDASPGNDSLGDELLQLFPAPLLAGVTATCVALFVVGIAGNLLTMLVVSRFRELRTTTNLYLSSMAFSDLLIFLCMPLDLVRLWQYRPWNFGDLLCKLFQFVSESCTYATVLTITALSVERYFAICFPLRAKVVVTKGRVKLVIFVIWAVAFCSAGPIFVAVGVEHENGTDPWDTNECRPTEFAVRSGLLTVMVWVSSIFFFLPVFCLTVLYSLIGRKLWRRRRGDAVVGASLRDQNHKQTVKMLAVVVFAFILCWLPFHVGRYLFSKSFEPGSLEIAQISQYCNLVSFVLFYLSAAINPILYNIMSKKYRVAVFRLLGFEPFSQRKLSTLKDESSRAWTESSINT
modifications: SNAP tag labelled with SNAP-Lumi4-Tb; left off: SNAP, N-terminal, kept
What does the source list for B7?
Cell-surface expression (replicate 1): 94.17%; Cell-surface expression (replicate 2): 98.71%; Cell-surface expression (replicate 3): 96.25%; Cell-surface expression (replicate 4): 95.38%; Cell-surface expression (replicate 5): 113.13%

B8: L37N-termA (protein)
chain: MWNATPSEEPGFNLTLADLDWDASPGNDSLGDELLQAFPAPLLAGVTATCVALFVVGIAGNLLTMLVVSRFRELRTTTNLYLSSMAFSDLLIFLCMPLDLVRLWQYRPWNFGDLLCKLFQFVSESCTYATVLTITALSVERYFAICFPLRAKVVVTKGRVKLVIFVIWAVAFCSAGPIFVLVGVEHENGTDPWDTNECRPTEFAVRSGLLTVMVWVSSIFFFLPVFCLTVLYSLIGRKLWRRRRGDAVVGASLRDQNHKQTVKMLAVVVFAFILCWLPFHVGRYLFSKSFEPGSLEIAQISQYCNLVSFVLFYLSAAINPILYNIMSKKYRVAVFRLLGFEPFSQRKLSTLKDESSRAWTESSINT
modifications: SNAP tag labelled with SNAP-Lumi4-Tb; left off: SNAP, N-terminal, kept
What does the source list for B8?
Cell-surface expression (replicate 1): 100.75%; Cell-surface expression (replicate 2): 98.96%; Cell-surface expression (replicate 3): 98.94%; Cell-surface expression (replicate 4): 96.06%; Cell-surface expression (replicate 5): 97.45%

B9: D992.60A (protein)
chain: MWNATPSEEPGFNLTLADLDWDASPGNDSLGDELLQLFPAPLLAGVTATCVALFVVGIAGNLLTMLVVSRFRELRTTTNLYLSSMAFSDLLIFLCMPLALVRLWQYRPWNFGDLLCKLFQFVSESCTYATVLTITALSVERYFAICFPLRAKVVVTKGRVKLVIFVIWAVAFCSAGPIFVLVGVEHENGTDPWDTNECRPTEFAVRSGLLTVMVWVSSIFFFLPVFCLTVLYSLIGRKLWRRRRGDAVVGASLRDQNHKQTVKMLAVVVFAFILCWLPFHVGRYLFSKSFEPGSLEIAQISQYCNLVSFVLFYLSAAINPILYNIMSKKYRVAVFRLLGFEPFSQRKLSTLKDESSRAWTESSINT
modifications: SNAP tag labelled with SNAP-Lumi4-Tb; left off: SNAP, N-terminal, kept
B9 was tested. Which Cell-surface expression (replicate 1) did it give?
The Cell-surface expression was 101.25%.

What about the Cell-surface expression (replicate 2) of the same molecule?
Its Cell-surface expression is 96.41%.

And the Cell-surface expression (replicate 3)?
The Cell-surface expression was 90.24%.

What about the Cell-surface expression (replicate 4) of the same molecule?
The Cell-surface expression was 92.75%.

What about the Cell-surface expression (replicate 5) of the same molecule?
The Cell-surface expression was 94.78%.

B10: E1243.33A (protein)
chain: MWNATPSEEPGFNLTLADLDWDASPGNDSLGDELLQLFPAPLLAGVTATCVALFVVGIAGNLLTMLVVSRFRELRTTTNLYLSSMAFSDLLIFLCMPLDLVRLWQYRPWNFGDLLCKLFQFVSASCTYATVLTITALSVERYFAICFPLRAKVVVTKGRVKLVIFVIWAVAFCSAGPIFVLVGVEHENGTDPWDTNECRPTEFAVRSGLLTVMVWVSSIFFFLPVFCLTVLYSLIGRKLWRRRRGDAVVGASLRDQNHKQTVKMLAVVVFAFILCWLPFHVGRYLFSKSFEPGSLEIAQISQYCNLVSFVLFYLSAAINPILYNIMSKKYRVAVFRLLGFEPFSQRKLSTLKDESSRAWTESSINT
modifications: SNAP tag labelled with SNAP-Lumi4-Tb; left off: SNAP, N-terminal, kept
For B10, which Cell-surface expression (replicate 1) is on record?
Its Cell-surface expression is 93.73%.

What about the Cell-surface expression (replicate 2) of the same molecule?
Its Cell-surface expression is 94.80%.

And the Cell-surface expression (replicate 3)?
The Cell-surface expression was 89.39%.

What about the Cell-surface expression (replicate 4) of the same molecule?
Its Cell-surface expression is 97.54%.

What about the Cell-surface expression (replicate 5) of the same molecule?
Its Cell-surface expression is 93.21%.
